Assay results published in publication PMC3874162 (Nucleic Acids Research, 2013).

Experiments:
Cdc13 = target: T1, Cdc13 (Saccharomyces cerevisiae, UniProt P32797 1-924); experiment: EMSA
T1 sequence: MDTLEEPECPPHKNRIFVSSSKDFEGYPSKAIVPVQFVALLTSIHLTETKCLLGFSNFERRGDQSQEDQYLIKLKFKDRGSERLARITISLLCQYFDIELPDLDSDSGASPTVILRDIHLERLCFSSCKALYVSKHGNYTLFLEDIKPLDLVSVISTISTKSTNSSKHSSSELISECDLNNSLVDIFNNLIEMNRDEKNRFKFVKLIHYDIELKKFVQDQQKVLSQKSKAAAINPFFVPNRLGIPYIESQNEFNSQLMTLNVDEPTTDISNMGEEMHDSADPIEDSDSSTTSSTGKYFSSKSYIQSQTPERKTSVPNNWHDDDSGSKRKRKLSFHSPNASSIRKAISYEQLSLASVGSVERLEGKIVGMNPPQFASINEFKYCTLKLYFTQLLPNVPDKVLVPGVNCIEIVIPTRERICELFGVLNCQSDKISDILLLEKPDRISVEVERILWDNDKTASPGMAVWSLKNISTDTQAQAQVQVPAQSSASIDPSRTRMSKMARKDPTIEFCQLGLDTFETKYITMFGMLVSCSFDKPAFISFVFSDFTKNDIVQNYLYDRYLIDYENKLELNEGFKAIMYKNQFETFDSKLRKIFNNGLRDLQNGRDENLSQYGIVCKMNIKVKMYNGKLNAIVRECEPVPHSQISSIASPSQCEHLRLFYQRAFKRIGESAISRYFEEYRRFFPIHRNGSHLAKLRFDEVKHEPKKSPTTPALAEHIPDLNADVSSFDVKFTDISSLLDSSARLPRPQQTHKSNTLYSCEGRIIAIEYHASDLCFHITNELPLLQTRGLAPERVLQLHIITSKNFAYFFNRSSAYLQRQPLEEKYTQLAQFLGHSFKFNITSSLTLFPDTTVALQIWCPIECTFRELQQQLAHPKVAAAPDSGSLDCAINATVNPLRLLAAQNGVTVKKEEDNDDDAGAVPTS

Cdc13-K622A = target: T2, Cdc13-K622A (Saccharomyces cerevisiae, UniProt P32797 1-924, K622A); experiment: EMSA
T2 sequence: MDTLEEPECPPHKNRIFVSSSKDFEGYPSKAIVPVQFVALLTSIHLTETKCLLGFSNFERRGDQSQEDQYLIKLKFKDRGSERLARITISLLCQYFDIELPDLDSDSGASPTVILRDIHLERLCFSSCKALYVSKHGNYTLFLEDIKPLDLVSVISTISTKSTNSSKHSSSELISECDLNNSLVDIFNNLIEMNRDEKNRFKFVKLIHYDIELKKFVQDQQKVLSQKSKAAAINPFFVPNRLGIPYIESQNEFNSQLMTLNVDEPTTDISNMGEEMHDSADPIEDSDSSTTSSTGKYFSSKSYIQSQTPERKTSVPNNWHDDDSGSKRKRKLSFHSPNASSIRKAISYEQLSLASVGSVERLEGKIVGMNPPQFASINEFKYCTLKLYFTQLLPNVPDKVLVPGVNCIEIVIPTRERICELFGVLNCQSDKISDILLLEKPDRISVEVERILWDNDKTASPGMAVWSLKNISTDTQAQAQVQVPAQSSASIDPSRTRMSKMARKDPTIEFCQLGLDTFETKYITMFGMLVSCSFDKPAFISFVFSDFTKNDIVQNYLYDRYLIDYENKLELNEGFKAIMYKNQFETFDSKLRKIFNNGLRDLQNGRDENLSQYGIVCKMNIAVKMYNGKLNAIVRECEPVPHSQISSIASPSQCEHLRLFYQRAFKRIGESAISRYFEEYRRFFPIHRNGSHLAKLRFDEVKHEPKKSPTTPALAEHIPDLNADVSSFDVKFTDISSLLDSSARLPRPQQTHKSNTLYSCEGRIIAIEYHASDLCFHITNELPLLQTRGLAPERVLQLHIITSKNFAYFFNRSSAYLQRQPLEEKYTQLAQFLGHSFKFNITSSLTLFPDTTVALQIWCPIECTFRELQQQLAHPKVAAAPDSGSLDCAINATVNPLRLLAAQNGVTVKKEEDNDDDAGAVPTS

Binder: GTGTGGGTGTG (ssDNA) [Tel11]
- Kd (Cdc13): 0.0134 ± 0.0004 nM
- Kd (Cdc13-K622A): 0.05 ± 0.003 nM
